PMC13572447, “USP5 acts as a proteolytic switch to control SDE2 function via UBL-directed cleavage” (Nature Communications, 2026)
Residue numbers refer to the chain shown, from its start. In names and notes the source's numbering stands.

B1: SDE2 ubiquitin-like domain, SDE2UBL(1-77) (domain or fragment, human, UniProt Q6IQ49-1 1-77, looked up)
chain: MAEAAALVWIRGPGFGCKAVRCASGRCTVRDFIHRHCQDQNVPVENFFVKCNGALINTSDTVQHGAVYSLEPRLCGG
notes: Silencing Defective 2 (SDE2), human, N-terminal ubiquitin-like domain, residues 1-77, ending in the free Gly76-Gly77 motif; also called SDE2 1-77; source: E. coli BL21 (DE3), purified (Ni-NTA, SUMO protease, reverse Ni-NTA, SEC Superdex 75); not shown: His, N-terminal, cleaved; SUMO, N-terminal, cleaved
B2: HA-SDE2UBL-PA activity-based probe (domain or fragment, human, UniProt Q6IQ49-1 1-76, looked up)
chain: MAEAAALVWIRGPGFGCKAVRCASGRCTVRDFIHRHCQDQNVPVENFFVKCNGALINTSDTVQHGAVYSLEPRLCG
modifications: C-terminal propargylamide: Gly77 replaced with a propargyl electrophilic warhead
notes: Silencing Defective 2 (SDE2), human, ubiquitin-like domain residues 1-76; Reacts covalently with the catalytic cysteine of the protease that recognises it; also called HA-SDE2UBL-ABP; SDE2UBL probe; not shown: HA, N-terminal, kept
B3: wild-type USP5 (ubiquitin-specific protease 5), recombinant (enzyme, human, UniProt P45974-1 1-858, looked up)
chain: MAELSEEALLSVLPTIRVPKAGDRVHKDECAFSFDTPESEGGLYICMNTFLGFGKQYVERHFNKTGQRVYLHLRRTRRPKEEDPATGTGDPPRKKPTRLAIGVEGGFDLSEEKFELDEDVKIVILPDYLEIARDGLGGLPDIVRDRVTSAVEALLSADSASRKQEVQAWDGEVRQVSKHAFSLKQLDNPARIPPCGWKCSKCDMRENLWLNLTDGSILCGRRYFDGSGGNNHAVEHYRETGYPLAVKLGTITPDGADVYSYDEDDMVLDPSLAEHLSHFGIDMLKMQKTDKTMTELEIDMNQRIGEWELIQESGVPLKPLFGPGYTGIRNLGNSCYLNSVVQVLFSIPDFQRKYVDKLEKIFQNAPTDPTQDFSTQVAKLGHGLLSGEYSKPVPESGDGERVPEQKEVQDGIAPRMFKALIGKGHPEFSTNRQQDAQEFFLHLINMVERNCRSSENPNEVFRFLVEEKIKCLATEKVKYTQRVDYIMQLPVPMDAALNKEELLEYEEKKRQAEEEKMALPELVRAQVPFSSCLEAYGAPEQVDDFWSTALQAKSVAVKTTRFASFPDYLVIQIKKFTFGLDWVPKKLDVSIEMPEELDISQLRGTGLQPGEEELPDIAPPLVTPDEPKGSLGFYGNEDEDSFCSPHFSSPTSPMLDESVIIQLVEMGFPMDACRKAVYYTGNSGAEAAMNWVMSHMDDPDFANPLILPGSSGPGSTSAAADPPPEDCVTTIVSMGFSRDQALKALRATNNSLERAVDWIFSHIDDLDAEAAMDISEGRSAADSISESVPVGPKVRDGPGKYQLFAFISHMGTSTMCGHYVCHIKKEGRWVIYNDQKVCASEKPPKDLGYIYFYQRVAS
notes: ubiquitin-specific protease 5 (USP5), human; No removal of the His tag is described; the TR-FRET assay detects the His-tagged protein with an anti-His6 antibody; also called USP5^WT; His-USP5; source: E. coli BL21 (DE3), purified (Ni-NTA, SEC Superdex 200)
B4: catalytically inactive USP5 C335A, recombinant (enzyme, human, UniProt P45974-1 1-858, looked up)
chain: B3 chain with C335A
notes: ubiquitin-specific protease 5 (USP5), human, catalytic Cys335 changed to Ala; Named His-USP5^C335A in the TR-FRET assay; also called His-USP5^C335A; source: E. coli BL21 (DE3), purified (Ni-NTA, SEC Superdex 200)
B5: SDE2UBL without the terminal Gly77 (domain or fragment, human, UniProt Q6IQ49-1 1-76, looked up)
chain: B2 chain
notes: Silencing Defective 2 (SDE2), human, ubiquitin-like domain with the terminal Gly77 removed (residues 1-76); also called SDE2UBLΔG77

Tests used:
Details in all cases: both partners purified
[1] = target: B4; experiment: ITC; SDE2 construct or Ub titrated into USP5 construct; ITC200, 298 K; 50 mM HEPES, 100 mM NaCl, 1 mM TCEP, pH 7.5; duplicate experiments
USP5 C335R, recombinant = target: T1, USP5 C335R, recombinant (human, UniProt P45974-1 1-858, C335R); experiment: as above
T1 construct: ubiquitin-specific protease 5 (USP5), human, Cys335 changed to Arg; source: E. coli BL21 (DE3), purified (Ni-NTA, SEC Superdex 200)
T1 sequence (looked up): B3 chain with C335R

[2] = target: B3; experiment: as above
[3] = target: B3; experiment: activity-based probe labelling (covalent adduct on SDS-PAGE); purified DUB 1 µM with probe 2 µM in 50 mM Tris pH 7.5, 1 mM DTT, 37 °C; quenched with LDS/DTT; shows only the covalent probe-enzyme adduct as a band shift
[4] = target: T2, Ub-PA activity-based probe (His-Ub-PA) (human, UniProt P0CG48 1-75, C-terminal propargylamide (PA) warhead); experiment: as above
T2 construct: ubiquitin residues 1-75; The plasmid name holds a 3C site between His and Ub; also called Ub-ABP; source: plasmid pTXB1_His-3C-Ub (1-75); obtained by the same method as HA-SDE2UBL-PA

[5] = target: T3, ubiquitin (monoubiquitin) (human, UniProt P0CG48 1-76); experiment: HDX-MS; USP5^WT 6 µM with or without 200 µM ubiquitin or SDE2UBL, 30 min; 20 mM HEPES pH 7.5, 150 mM NaCl, 1 mM DTT; exchange 0.3 to 3000 s; pepsin digestion
T3 construct: ubiquitin, human

[6] = target: T3, ubiquitin (monoubiquitin); experiment: ITC; SDE2 construct or Ub titrated into USP5 construct; ITC200, 298 K; 50 mM HEPES, 100 mM NaCl, 1 mM TCEP, pH 7.5; duplicate experiments

B1 was tested, and the Kd [1] was 1670 nM, the “stoichiometry N” value [1] was 2 and the Kd (USP5 C335R, recombinant) was 2150 nM. The “stoichiometry N” value (USP5 C335R, recombinant) was 1 and the Kd [2] was 26600 nM.

B2: binds [3].

B3: binds [4]; binds [5].

With B4 the Kd [6] was 11.7 ± 9.1 nM.

B5: binds [2].
